Measured values as given in article PMC10786891, “Massively parallel profiling of RNA-targeting CRISPR-Cas13d”.

Target: T1, EsCas13d, nuclease-dead (Eubacterium siraeum, UniProt B0MS50, R295A;H300A;R849A;H854A)
T1 sequence: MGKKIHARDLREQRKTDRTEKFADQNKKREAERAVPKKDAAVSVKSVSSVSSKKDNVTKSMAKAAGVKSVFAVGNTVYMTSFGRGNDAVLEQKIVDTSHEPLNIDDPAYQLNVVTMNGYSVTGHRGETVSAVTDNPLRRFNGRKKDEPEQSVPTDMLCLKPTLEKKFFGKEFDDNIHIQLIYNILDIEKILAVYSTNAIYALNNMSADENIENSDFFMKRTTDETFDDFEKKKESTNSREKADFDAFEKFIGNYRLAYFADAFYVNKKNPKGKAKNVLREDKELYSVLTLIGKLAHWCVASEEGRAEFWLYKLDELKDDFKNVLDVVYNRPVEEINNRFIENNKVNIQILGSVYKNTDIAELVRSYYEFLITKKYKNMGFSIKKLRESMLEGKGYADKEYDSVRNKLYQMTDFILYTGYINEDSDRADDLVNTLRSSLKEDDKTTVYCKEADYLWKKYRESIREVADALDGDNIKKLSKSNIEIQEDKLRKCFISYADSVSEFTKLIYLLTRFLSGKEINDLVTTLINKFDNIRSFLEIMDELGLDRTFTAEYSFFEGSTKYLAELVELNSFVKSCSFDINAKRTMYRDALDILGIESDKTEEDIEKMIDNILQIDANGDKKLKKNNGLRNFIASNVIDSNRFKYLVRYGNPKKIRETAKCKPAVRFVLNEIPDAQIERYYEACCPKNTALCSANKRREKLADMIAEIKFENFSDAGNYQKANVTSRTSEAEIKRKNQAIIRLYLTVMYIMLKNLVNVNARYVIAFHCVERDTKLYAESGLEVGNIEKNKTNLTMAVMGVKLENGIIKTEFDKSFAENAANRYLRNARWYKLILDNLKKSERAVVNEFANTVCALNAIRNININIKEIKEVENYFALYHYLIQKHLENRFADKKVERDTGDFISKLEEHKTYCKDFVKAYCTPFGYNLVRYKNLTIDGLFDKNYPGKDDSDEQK
Assay: crRNA (strand 1, pre-loaded); Mg2+; 40 mM Tris-HCl pH 7.5, 150 mM NaCl, 6 mM MgCl2, 1 mM DTT, 0.1% Tween-20, 0.2 mg/ml BSA; 25 C; 10 min per concentration, then washed
Settings: tags: His6-TwinStrep-SUMO cleaved; N-terminal SNAP kept (SNAP-Surface 488); label: 3' end held by stalled T7 RNA polymerase

B1: target 3 insU 3' of 6,insA 3' of 3 (mixed)
RNA 1: CACCCGUGCAAAAUUGCAGGGGUCUAAAACGACCUGAAUAUUUCAGAUCAAA
RNA 2: GGGAAUGGAUCCACAUCUACGAAUUCGUUUUUGAUCUGAAAUAUUCUAGGAUCUGCAGAUCGGAAGAGCACACGU
B1 showed a Kd of 11.2 ± 1.3 nM.

B2: target 3 insU 3' of 5,insA 3' of 4 (mixed)
RNA 1: CACCCGUGCAAAAUUGCAGGGGUCUAAAACGACCUGAAUAUUUCAGAUCAAA
RNA 2: GGGAAUGGAUCCACAUCUACGAAUUCGUUUUUGAUCUGAAAUAUUCAUGAGUCUGCAGAUCGGAAGAGCACACGU
Work on B2 yielded a Kd of 9.9 ± 1.8 nM.

B3: target 3 insU 3' of 22,insU 3' of 6 (mixed)
RNA 1: CACCCGUGCAAAAUUGCAGGGGUCUAAAACGACCUGAAUAUUUCAGAUCAAA
RNA 2: GGGAAUGGAUCCACAUCUACGAAUUCGUUUUUUGAUCUGAAAUAUUCUAGGUCUGCAGAUCGGAAGAGCACACGU
B3 gave a Kd of 27.5 ± 3.7 nM.

B4: target 3 U2C,U8G (mixed)
RNA 1: CACCCGUGCAAAAUUGCAGGGGUCUAAAACGACCUGAAUAUUUCAGAUCAAA
RNA 2: GGGAAUGGAUCCACAUCUACGAAUUCGUUUUUGAUCUGAAAUAGUCAGGCCUGCAGAUCGGAAGAGCACACGU
B4 was tested, and the Kd was 95.5 ± 20.5 nM.

B5: target 3 insC 3' of 13,insA 3' of 2 (mixed)
RNA 1: CACCCGUGCAAAAUUGCAGGGGUCUAAAACGACCUGAAUAUUUCAGAUCAAA
RNA 2: GGGAAUGGAUCCACAUCUACGAAUUCGUUUUUGAUCUGACAAUAUUCAGGUACUGCAGAUCGGAAGAGCACACGU
With B5 the Kd was 70 ± 13 nM.

B6: target 3 insU 3' of 22,insC 3' of 22 (mixed)
RNA 1: CACCCGUGCAAAAUUGCAGGGGUCUAAAACGACCUGAAUAUUUCAGAUCAAA
RNA 2: GGGAAUGGAUCCACAUCUACGAAUUCGUUUUCUUGAUCUGAAAUAUUCAGGUCUGCAGAUCGGAAGAGCACACGU
B6 gave a Kd of 39.5 ± 6 nM.

B7: target 3 U7C (mixed)
RNA 1: CACCCGUGCAAAAUUGCAGGGGUCUAAAACGACCUGAAUAUUUCAGAUCAAA
RNA 2: GGGAAUGGAUCCACAUCUACGAAUUCGUUUUUGAUCUGAAAUAUCCAGGUCUGCAGAUCGGAAGAGCACACGU
With B7 the Kd was 56 ± 7 nM.

B8: target 3 insU 3' of 9,insG 3' of 7 (mixed)
RNA 1: CACCCGUGCAAAAUUGCAGGGGUCUAAAACGACCUGAAUAUUUCAGAUCAAA
RNA 2: GGGAAUGGAUCCACAUCUACGAAUUCGUUUUUGAUCUGAAAUAUUUGCAGGUCUGCAGAUCGGAAGAGCACACGU
Work on B8 yielded a Kd of 84.5 ± 18.5 nM.

B9: target 3 U2C,G4C (mixed)
RNA 1: CACCCGUGCAAAAUUGCAGGGGUCUAAAACGACCUGAAUAUUUCAGAUCAAA
RNA 2: GGGAAUGGAUCCACAUCUACGAAUUCGUUUUUGAUCUGAAAUAUUCACGCCUGCAGAUCGGAAGAGCACACGU
For B9, the Kd was 18.4 ± 2.75 nM.

B10: target 3 insA 3' of 21,insC 3' of 3 (mixed)
RNA 1: CACCCGUGCAAAAUUGCAGGGGUCUAAAACGACCUGAAUAUUUCAGAUCAAA
RNA 2: GGGAAUGGAUCCACAUCUACGAAUUCGUUUUAUGAUCUGAAAUAUUCAGGCUCUGCAGAUCGGAAGAGCACACGU
B10 gave a Kd of 35 ± 5 nM.

B11: target 3 C1G,A5U (mixed)
RNA 1: CACCCGUGCAAAAUUGCAGGGGUCUAAAACGACCUGAAUAUUUCAGAUCAAA
RNA 2: GGGAAUGGAUCCACAUCUACGAAUUCGUUUUUGAUCUGAAAUAUUCUGGUGUGCAGAUCGGAAGAGCACACGU
Binder B11 has a Kd of 10.1 ± 1.55 nM.

B12: target 3 insC 3' of 7,insU 3' of 3 (mixed)
RNA 1: CACCCGUGCAAAAUUGCAGGGGUCUAAAACGACCUGAAUAUUUCAGAUCAAA
RNA 2: GGGAAUGGAUCCACAUCUACGAAUUCGUUUUUGAUCUGAAAUAUUCCAGGUUCUGCAGAUCGGAAGAGCACACGU
B12 gave a Kd of 49.5 ± 10 nM.

B13: target 3 G4A,A9G (mixed)
RNA 1: CACCCGUGCAAAAUUGCAGGGGUCUAAAACGACCUGAAUAUUUCAGAUCAAA
RNA 2: GGGAAUGGAUCCACAUCUACGAAUUCGUUUUUGAUCUGAAAUGUUCAAGUCUGCAGAUCGGAAGAGCACACGU
In the case of B13, the Kd is reported as 52.5 ± 7 nM.

B14: target 3 insC 3' of 15,insC 3' of 11 (mixed)
RNA 1: CACCCGUGCAAAAUUGCAGGGGUCUAAAACGACCUGAAUAUUUCAGAUCAAA
RNA 2: GGGAAUGGAUCCACAUCUACGAAUUCGUUUUUGAUCUCGAAACUAUUCAGGUCUGCAGAUCGGAAGAGCACACGU
B14 showed a Kd of 46 ± 4 nM.

B15: target 3 A5G,U8A (mixed)
RNA 1: CACCCGUGCAAAAUUGCAGGGGUCUAAAACGACCUGAAUAUUUCAGAUCAAA
RNA 2: GGGAAUGGAUCCACAUCUACGAAUUCGUUUUUGAUCUGAAAUAAUCGGGUCUGCAGAUCGGAAGAGCACACGU
Work on B15 yielded a Kd of 80.5 ± 15 nM.

B16: target 3 insU 3' of 16,insG 3' of 2 (mixed)
RNA 1: CACCCGUGCAAAAUUGCAGGGGUCUAAAACGACCUGAAUAUUUCAGAUCAAA
RNA 2: GGGAAUGGAUCCACAUCUACGAAUUCGUUUUUGAUCUUGAAAUAUUCAGGUGCUGCAGAUCGGAAGAGCACACGU
B16 gave a Kd of 16.1 ± 1.9 nM.

B17: target 3 insA 3' of 15,insU 3' of 3 (mixed)
RNA 1: CACCCGUGCAAAAUUGCAGGGGUCUAAAACGACCUGAAUAUUUCAGAUCAAA
RNA 2: GGGAAUGGAUCCACAUCUACGAAUUCGUUUUUGAUCUAGAAAUAUUCAGGUUCUGCAGAUCGGAAGAGCACACGU
B17 showed a Kd of 59.5 ± 12.5 nM.

B18: target 3 C1A,U7C (mixed)
RNA 1: CACCCGUGCAAAAUUGCAGGGGUCUAAAACGACCUGAAUAUUUCAGAUCAAA
RNA 2: GGGAAUGGAUCCACAUCUACGAAUUCGUUUUUGAUCUGAAAUAUCCAGGUAUGCAGAUCGGAAGAGCACACGU
Binder B18 has a Kd of 100 ± 40 nM.

B19: target 3 del3,del4 (mixed)
RNA 1: CACCCGUGCAAAAUUGCAGGGGUCUAAAACGACCUGAAUAUUUCAGAUCAAA
RNA 2: GGGAAUGGAUCCACAUCUACGAAUUCGUUUUUGAUCUGAAAUAUUCAUCUGCAGAUCGGAAGAGCACACGU
For B19, the Kd was 13.9 ± 1.4 nM.

B20: target 3 C6G,U7A (mixed)
RNA 1: CACCCGUGCAAAAUUGCAGGGGUCUAAAACGACCUGAAUAUUUCAGAUCAAA
RNA 2: GGGAAUGGAUCCACAUCUACGAAUUCGUUUUUGAUCUGAAAUAUAGAGGUCUGCAGAUCGGAAGAGCACACGU
B20 showed a Kd of 48.5 ± 5.5 nM.

B21: target 3 C1U,U7C (mixed)
RNA 1: CACCCGUGCAAAAUUGCAGGGGUCUAAAACGACCUGAAUAUUUCAGAUCAAA
RNA 2: GGGAAUGGAUCCACAUCUACGAAUUCGUUUUUGAUCUGAAAUAUCCAGGUUUGCAGAUCGGAAGAGCACACGU
B21 gave a Kd of 58.5 ± 16 nM.

B22: target 3 insU 3' of 11,insG 3' of 5 (mixed)
RNA 1: CACCCGUGCAAAAUUGCAGGGGUCUAAAACGACCUGAAUAUUUCAGAUCAAA
RNA 2: GGGAAUGGAUCCACAUCUACGAAUUCGUUUUUGAUCUGAAAUUAUUCAGGGUCUGCAGAUCGGAAGAGCACACGU
Binder B22 has a Kd of 104 ± 29 nM.

B23: target 3 insA 3' of 15,insC 3' of 11 (mixed)
RNA 1: CACCCGUGCAAAAUUGCAGGGGUCUAAAACGACCUGAAUAUUUCAGAUCAAA
RNA 2: GGGAAUGGAUCCACAUCUACGAAUUCGUUUUUGAUCUAGAAACUAUUCAGGUCUGCAGAUCGGAAGAGCACACGU
For B23, the Kd was ~90 nM.

B24: target 3 C16U,U22A (mixed)
RNA 1: CACCCGUGCAAAAUUGCAGGGGUCUAAAACGACCUGAAUAUUUCAGAUCAAA
RNA 2: GGGAAUGGAUCCACAUCUACGAAUUCGUUAUUGAUUUGAAAUAUUCAGGUCUGCAGAUCGGAAGAGCACACGU
B24 showed a Kd of 70 ± 11 nM.

B25: target 1 C21A,C22U (mixed)
RNA 1: CACCCGUGCAAAAAUGCAGGGGUCUAAAACUGAGCGGAUAACCUCUCUAUGG
RNA 2: GGGAAUGGAUCCACAUCUACGAAUUCGUAUAAUAGAGAGGUUAUCCGCUCACCGAGAUCGGAAGAGCACACGU
In the case of B25, the Kd is reported as 45 ± 7 nM.

B26: target 1 G15U,G17A (mixed)
RNA 1: CACCCGUGCAAAAAUGCAGGGGUCUAAAACUGAGCGGAUAACCUCUCUAUGG
RNA 2: GGGAAUGGAUCCACAUCUACGAAUUCGUACCAUAAAUAGGUUAUCCGCUCACCGAGAUCGGAAGAGCACACGU
B26 gave a Kd of 53 ± 5 nM.

B27: target 1 U3A,U11C (mixed)
RNA 1: CACCCGUGCAAAAAUGCAGGGGUCUAAAACUGAGCGGAUAACCUCUCUAUGG
RNA 2: GGGAAUGGAUCCACAUCUACGAAUUCGUACCAUAGAGAGGCUAUCCGCACACCGAGAUCGGAAGAGCACACGU
Binder B27 has a Kd of 10.3 ± 1.2 nM.

B28: target 1 G12U,A18U (mixed)
RNA 1: CACCCGUGCAAAAAUGCAGGGGUCUAAAACUGAGCGGAUAACCUCUCUAUGG
RNA 2: GGGAAUGGAUCCACAUCUACGAAUUCGUACCAUUGAGAGUUUAUCCGCUCACCGAGAUCGGAAGAGCACACGU
Binder B28 has a Kd of 44 ± 10 nM.
